Reference: patent US7531337

B1: CobB sirtuin of S. enterica (purified, homogeneous) (protein)
chain: MQSRRFHRLSRFRKNKRLLRERLRQRIFFRDRVVPEMMENPRVLVLTGAGISAESGIRTFRAADGLWEEHRVEDVATPEGFARNPGLVQTFYNARRQQLQQPEIQPNAAHLALAKLEEALGDRFLLVTQNIDNLHERAGNRNIIHMHGELLKVRCSQSGQILEWNGDVMPEDKCHCCQFPAPLRPHVVWFGEMPLGMDEIYMALSMADIFIAIGTSGHVYPAAGFVHEAKLHGAHTVELNLEPSQVGSEFEEKHYGPASQVVPEFVDKFLKGL

Assays:
[1] = biological target: Acetylated acetyl-CoA synthetase (Acs^Ac), Acs of S. enterica isolated from a cobB- strain (S. enterica) (UniProt Q8ZKF6); test: cell-based or functional assay
[2] = biological target: T1, Acetylated acetyl-CoA synthetase (Acs^Ac), Acs of S. enterica isolated from a cobB- strain
T1 chain: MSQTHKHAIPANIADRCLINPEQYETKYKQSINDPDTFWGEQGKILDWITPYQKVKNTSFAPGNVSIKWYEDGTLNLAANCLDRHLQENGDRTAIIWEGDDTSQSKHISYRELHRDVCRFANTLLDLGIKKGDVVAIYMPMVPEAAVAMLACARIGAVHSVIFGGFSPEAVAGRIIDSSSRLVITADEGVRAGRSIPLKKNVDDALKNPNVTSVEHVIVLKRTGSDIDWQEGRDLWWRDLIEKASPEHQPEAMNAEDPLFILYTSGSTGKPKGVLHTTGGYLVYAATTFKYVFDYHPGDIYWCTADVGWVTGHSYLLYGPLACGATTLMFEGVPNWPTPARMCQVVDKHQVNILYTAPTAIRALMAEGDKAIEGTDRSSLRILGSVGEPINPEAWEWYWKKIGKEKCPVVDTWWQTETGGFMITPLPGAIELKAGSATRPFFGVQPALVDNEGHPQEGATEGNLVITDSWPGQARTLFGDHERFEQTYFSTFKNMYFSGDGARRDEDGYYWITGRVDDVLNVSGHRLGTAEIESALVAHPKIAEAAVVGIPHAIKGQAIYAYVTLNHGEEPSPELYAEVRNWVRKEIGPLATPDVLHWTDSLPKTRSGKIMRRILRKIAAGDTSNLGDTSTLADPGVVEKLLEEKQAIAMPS

[3] = scale: pmoles of acetyl-CoA formed min^-1 mg of protein^-1

Molecule | Acs Sp. Act. (purified Acs from CobB- host, plus BSA, CobB, NAD+) (nmoles of acetyl-CoA formed min^-1 mg^-1) [1] | Acs Sp. Act. (purified Acs from CobB- host, plus CobB, NAD+) (nmoles of acetyl-CoA formed min^-1 mg^-1) [1] | Acs Specific Activity (crude cell-free extract of Acs+ cobB- strain, plus 10 µg CobB + NAD+) [1, 3] | Acs Specific Activity (crude cell-free extract of Acs+ cobB- strain, plus 10 µg CobB) [1, 3] | reactivity of Acs with anti-acetyl-lysine antibody in a time-course immunoblot [2]
CobB sirtuin of S. enterica (purified, homogeneous) (from UniProt P0A2F2 1-273) (enzyme) | 483 | 480 | 490 | 42 | 
B1 |  |  |  |  | The decreased reactivity of Acs with the antibody was dependent on the presence of NAD^+ and CobB in a time-course experiment
